One may read the koff as the first-order rate constant of dissociation.

Our source for the koff values is article PMC12702776 (2025).

The target in test [1] is RAC1^P29S, purified (human, UniProt P63000 1-192, P29S). Description: mGppNHp-bound RAC1.
Test [2] deals with T1, RAC1^F28L, purified (human, UniProt P63000 1-192, F28L). Description: mGppNHp-bound RAC1.
For test [3], the target named is T2, RAC1^WT (Ras-related C3 botulinum toxin substrate 1, wild type), purified (human, UniProt P63000 1-192). The test can be described thus: mGppNHp-bound RAC1.
Test [4] has as its target T3, RAC1^T17N, purified (human, UniProt P63000 1-192, T17N). Description: mGppNHp-bound RAC1.
The target in test [5] is T1, RAC1^F28L, purified. Description: mdGDP-bound RAC1.
The target in test [6] is T2, RAC1^WT (Ras-related C3 botulinum toxin …). The test can be described thus: mdGDP-bound RAC1.
Test [7] deals with T3, RAC1^T17N, purified. The test can be described thus: mdGDP-bound RAC1.

B1: His-IQGAP1 C794 (C-terminal 794 amino acids of IQ motif-containing GTPase-activating protein 1) (domain or fragment)
chain: PPMVVVRKFVHLLDQSDQDFQEELDLMKMREEVITLIRSNQQLENDLNLMDIKIGLLVKNKITLQDVVSHSKKLTKKNKEQLSDMMMINKQKGGLKALSKEKREKLEAYQHLFYLLQTNPTYLAKLIFQMPQNKSTKFMDSVIFTLYNYASNQREEYLLLRLFKTALQEEIKSKVDQIQEIVTGNPTVIKMVVSFNRGARGQNALRQILAPVVKEIMDDKSLNIKTDPVDIYKSWVNQMESQTGEASKLPYDVTPEQALAHEEVKTRLDSSIRNMRAVTDKFLSAIVSSVDKIPYGMRFIAKVLKDSLHEKFPDAGEDELLKIIGNLLYYRYMNPAIVAPDAFDIIDLSAGGQLTTDQRRNLGSIAKMLQHAASNKMFLGDNAHLSIINEYLSQSYQKFRRFFQTACDVPELQDKFNVDEYSDLVTLTKPVIYISIGEIINTHTLLLDHQDAIAPEHNDPIHELLDDLGEVPTIESLIGESSGNLNDPNKEALAKTEVSLTLTNKFDVPGDENAEMDARTILLNTKRLIVDVIRFQPGETLTEILETPATSEQEAEHQRAMQRRAIRDAKTPDKMKKSKSVKEDSNLTLQEKKEKIQTGLKKLTELGTVDPKNKYQELINDIARDIRNQRRYRQRRKAELVKLQQTYAALNSKATFYGEQVDYYKSYIKTCLDNLASKGKVSKKPREMKGKKSKKISLKYTAARLHEKGVLLEIEDLQVNQFKNVIFEISPTEEVGDFEVKAKFMGVQMETFMLHYQDLLQLQYEGVAVMKLFDRAKVNVNLLIFLLNKKFYGK
B1: the koff was found to be 0.138 s⁻¹ in test [1], 0.206 s⁻¹ in test [2], 0.404 s⁻¹ in test [3] and 0.0142 s⁻¹ in test [4].

B2: GST-GDI1 (guanosine dissociation inhibitor 1, full-length) (natural protein)
chain: MAEQEPTAEQLAQIAAENEEDEHSVNYKPPAQKSIQEIQELDKDDESLRKYKEALLGRVAVSADPNVPNVVVTGLTLVCSSAPGPLELDLTGDLESFKKQSFVLKEGVEYRIKISFRVNREIVSGMKYIQHTYRKGVKIDKTDYMVGSYGPRAEEYEFLTPVEEAPKGMLARGSYSIKSRFTDDDKTDHLSWEWNLTIKKDWKD
As to B2, the off-rate constant (koff) was 1.03 s⁻¹ in test [5], 0.693 s⁻¹ in test [6] and 0.038 s⁻¹ in test [7].
